In patent publication US20240150495A1 one finds ELISA absorbance and A492/620 data, which are given here for two molecules.

Experiment [1] has as its target T1, synthetic peptide Rp10-L, a mimotope of B-cell molecular marker CD20.
T1 sequence (peptide): ITPWPHWLERSS
Put plainly: ELISA, periplasmic extract, Rp10-L 6.25 µg/ml; well without peptide 0.265.

Experiment [2] shares this target. Put plainly: ELISA, periplasmic extract, Rp10-L 1.63 µg/ml; well without peptide 0.265.
The target is the same in experiment [3]. Put plainly: ELISA, periplasmic extract, Rp10-L 50.0 µg/ml; well without peptide 0.265. On the technique in general: ELISA stands for enzyme-linked immunosorbent assay.
For experiment [4] the target is unchanged. Kind of experiment: ELISA, periplasmic lysate on coated Rp10-L, single well; plate A background 0.027.
Experiment [5] has the same target. Put plainly: ELISA, periplasmic extract, Rp10-L 3.13 µg/ml; well without peptide 0.265.
The target is the same in experiment [6]. Put plainly: ELISA, periplasmic extract, Rp10-L 12.5 µg/ml; well without peptide 0.265.
For experiment [7] the target is unchanged. Put plainly: ELISA, periplasmic extract, Rp10-L 0.81 µg/ml; well without peptide 0.265.
Experiment [8] shares this target. Put plainly: ELISA, periplasmic extract, Rp10-L 25.0 µg/ml; well without peptide 0.265.
For experiment [9] the target is unchanged. Put plainly: ELISA, periplasmic extract, Rp10-L 12.5 µg/ml; well without peptide 0.469.
Experiment [10] shares this target. Put plainly: ELISA, periplasmic extract, Rp10-L 1.63 µg/ml; well without peptide 0.469.
For experiment [11] the target is unchanged. Kind of experiment: ELISA, periplasmic extract, Rp10-L 6.25 µg/ml; well without peptide 0.469.
Experiment [12] has the same target. Put plainly: ELISA, periplasmic lysate on coated Rp10-L, single well; plate D background 0.035.
The target is the same in experiment [13]. Kind of experiment: ELISA, periplasmic extract, Rp10-L 25.0 µg/ml; well without peptide 0.469.
The target is the same in experiment [14]. Put plainly: ELISA, periplasmic extract, Rp10-L 50.0 µg/ml; well without peptide 0.469.
For experiment [15] the target is unchanged. Kind of experiment: ELISA, periplasmic extract, Rp10-L 3.13 µg/ml; well without peptide 0.469.
Experiment [16] shares this target. Put plainly: ELISA, periplasmic extract, Rp10-L 0.81 µg/ml; well without peptide 0.469.

B1: CH3 clone A21 (mutated human IgG1 CH3 domain, CH3+3 library) (designed binder, not shown: small tags and cut ends)
chain: MAPREPQVYTLPPSRDELVDGQVSLTCLVKGFYPSDIAVEWESNGQPENNYKTTPPVLDSDGSFFLYSKLTVPWGPRDRWWPGNVFSCSVMHEALHNHYTQKSLSLSPGKAAA
Turning to B1, the ELISA absorbance was found to be 0.343 in experiment [1]; 0.383 in experiment [2]; 0.398 in experiment [3]; 0.352 in experiment [5]; 0.315 in experiment [6]; 0.362 in [7]. In experiment [8], the ELISA absorbance is 0.335. The molecule also registered an A492/620 in experiment [4] of 0.395 A492/620.

B2: CH3 clone D39 (mutated human IgG1 CH3 domain, CH3+3 library) (designed binder, not shown: small tags and cut ends)
chain: MAPREPQVYTLPPSRDELGWWQVSLTCLVKGFYPSDIAVEWESNGQPENNYKTTPPVLDSDGSFFLYSKLTVQQKPFARWTDGNVFSCSVMHEALHNHYTQKSLSLSPGKAAA
With B2, the ELISA absorbance is 0.77 in experiment [9]; 0.719 in experiment [10]; 0.694 in experiment [11]; 0.868 in experiment [13]; 0.765 in experiment [14]; 0.719 in [15]. For the same molecule, in [16], the ELISA absorbance came to 0.66. Besides, in experiment [12], the A492/620 came to 0.448 A492/620.
